Earlier results, collected in PMC5245780.

Target: Hax1 isoform 1 (Rattus norvegicus) (UniProt Q7TSE9)

- Kd: 3.8 nM
Substance: Hax1 isoform 1 (from UniProt Q7TSE9)
